To fix the notation:
B1: IL-20R1-FC (Fc fusion)
chain: VPCVSGGLPKPANITFLSINMKNVLQWTPPEGLQGVKVTYTVQYFIYGQKKWLNKSECRNINRTYCDLSAETSDYEHQYYAKVKAIWGTKCSKWAESGRFYPFLETQIGPPEVALTTDEKSISVVLTAPEKWKRNPEDLPVSMQQIYSNLKYNVSVLNTKSNRTWSQCVTNHTLVLTWLEPNTLYCVHVESFVPGPPRRAQPSEKQCARTLKDQSSEFKAKGSGGGGPSVFIFPPKIKDVLMISLSPIVTCVVVDVSEDDPDVQISWFVNNVEVHTAQTQTHREDYNSTLRVVSALPIQHQDWMSGKEFKCKVNNKDLPAPIERTISKPKGSVRAPQVYVLPPPCEEMTKKQVTLYCMVTDFMPEDIYVEWTNNGKTELNYKNTEPVLDSDGSYFMYSKLRVEKKNWVERNSYSCSVVHEGLHNHHTTKSFSRTPGKGLEASGGLNDIFEAQKIEWHEGTGHHHHHH
notes: also called IL-20R-fc

Experiment [1] has as its target T1, IL-20 (human, UniProt Q9NYY1 25-176).
T1 construct: The crystal model holds residues 24-176; also called Interleukin-20; IL-20b
T1 sequence: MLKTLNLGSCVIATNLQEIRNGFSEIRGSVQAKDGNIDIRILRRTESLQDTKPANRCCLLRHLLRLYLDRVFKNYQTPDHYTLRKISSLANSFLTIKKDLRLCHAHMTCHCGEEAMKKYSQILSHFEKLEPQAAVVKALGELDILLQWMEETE
Kind of experiment: SPR, site KD as listed in Table 5. In general terms: Surface plasmon resonance follows binding to a sensor surface in real time, without labels.

In experiment [2] the target is T1, IL-20. Kind of experiment: SPR (Biacore), IL-20 (10-0.625 µM) over IL-20R1-fc captured by anti-FC Ab. On the procedure: (§1) FIGS. 12A-12H are graphs showing IL19/IL-20 receptor interactions and complex stability. SPR sensorgrams, data fits (black lines), KD values, and residual errors obtained for complexes described at the top of each panel. Panels are labeled as injected soluble proteins, followed by a semicolon (:), then the protein coupled to chip surface, IL-20R1 or IL-20R2. FIGS. 12A and 12B show injection of IL-19 and IL-20 (max conc.=10 μM, 2 fold diluted to 0.625 μM) over IL-20R1. FIGS. 12C and 12D show injection of IL-19 (max conc.=500 nM, 2-fold diluted to 3.91 nM) or IL-20 (max conc.=2000 nM, 2-fold diluted to 62.5 nM) over IL-20R2. FIGS. 12E-12H show IL-19 and IL-20 (fixed at 250 nM) mixed with different concentrations of IL-20R1, or IL-22R1, (max conc.=1000 nM, 2-fold diluted to 7.81 nM) and injected over IL-20R2. To estimate R1 chain affinity/complex stability, the contribution of the ligand was removed by using the 250 nM IL-19, or IL-20, sensorgram as the blank subtraction. All sensorgrams were fit to 1:1 binding models.
(§2) Surface Plasmon Resonance Experiments SPR experiments were performed on Biacore T-100, and T-200, (GE healthcare, Waukesha, Wis.) systems. […] Soluble proteins were injected for 75-90 seconds (30 uL/min) over the surfaces, and the dissociation phase was followed for 75-120 seconds depending on the stability of the complex being analyzed. […]

For experiment [3], the target named is T2, IL-19 (human, UniProt Q9UHD0 25-177).
T2 construct: also called Interleukin-19; IL-19a
T2 sequence: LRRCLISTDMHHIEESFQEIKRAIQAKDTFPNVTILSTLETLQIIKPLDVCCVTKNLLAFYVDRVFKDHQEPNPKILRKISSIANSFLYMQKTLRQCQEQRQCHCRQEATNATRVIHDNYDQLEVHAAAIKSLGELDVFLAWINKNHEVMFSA
Description: SPR, IL-19 (10 µM, 2-fold diluted to 0.625 µM) injected over IL-20R1 (IL-20R1-fc in Table 4). On the procedure:
as §1, §2

The target of the next experiment is T3, IL-20R1 triple mutant M3 (UniProt Q9UHF4 29-245).
T3 construct: range 29-245; also called IL-20R1 site 3 mutant
T3 sequence (looked up): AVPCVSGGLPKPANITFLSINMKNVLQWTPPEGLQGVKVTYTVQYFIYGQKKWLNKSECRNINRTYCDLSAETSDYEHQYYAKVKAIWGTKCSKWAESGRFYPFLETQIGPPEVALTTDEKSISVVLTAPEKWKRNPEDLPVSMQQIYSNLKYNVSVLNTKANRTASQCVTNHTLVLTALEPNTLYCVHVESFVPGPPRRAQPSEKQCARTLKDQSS
Description: SPR, IL-19 co-injected with M3 over an IL-20R2 coupled Biacore chip. On the procedure: FIGS. 9A-9D show the IL-20 site 3 interface is essential and distinct from other complexes. FIG. 9A is a ribbon diagram showing the site 3 interface between IL-20R1 and IL-20R2. FIG. 9B is a graph showing the importance of the site 3 interface in ternary complex formation. SPR sensograms obtained by injecting cytokines (IL-19 or IL-20, at 250 nM) and/or receptors (IL-20R1 or M3, at 425 nM), as labeled on the figure, over an IL-20R2 coupled biacore chip. Injection of IL-20+IL-20R1 results in a large response consistent with ternary complex formation. However, injection of IL-20+M3, an IL-20R1 site 3 mutant with S190^IL-20R1, W194^IL-20R1, and W207^IL-20R1 mutated to alanine drastically reduces binding due to disruption of ternary complex formation. Similar results are observed for complex formation by IL-19. FIG. 9C is a ribbon diagram of the superposition of the D2 domains of GHR site 1, IL-6R, and IL-20R1. The positions of the D2 domains of GHR site2, GP130, and IL-20R2 are shown, along with a schematic of the differences in their orientations. FIG. 9D is a ribbon diagram showing the putative model of the IL-22/IL-22R1/IL-10R2 complex based on the IL-20 ternary complex structure. […]

For experiment [4], the target named is T2, IL-19. Kind of experiment: SPR (Biacore), IL-19 over amine coupled IL-20R2, 1:1 fit. On the procedure: as §1
Surface Plasmon Resonance Experiments SPR experiments were performed on Biacore T-100, and T-200, (GE healthcare, Waukesha, Wis.) systems. Soluble IL-20R2 was amine coupled (100-130 RU) to CM5 research grade biacore chips in 10 mM sodium acetate, pH 5.0. IL-20R1-FC and IL-20R2-FC were coupled (60-120 RU) to CM5 chips using an anti-FC Ab coupling kit using the manufacturer's instructions (GE healthcare, Waukesha, Wis.). All binding experiments were performed in running buffer consisting of 10 mM Hepes, pH 7.4, 150 mM NaCl, 0.04% P20, and 0.1 mg/mL bovine serum albumin (Sigma, St. Louis, Mo.). No regeneration was performed between sample injections on IL-20R2 amine-coupled surfaces. IL-20R1-FC and IL-20R2-FC surfaces were regenerated after each sample injection with a 3-minute injection of glycine, pH 1.7. Soluble proteins were injected for 75-90 seconds (30 uL/min) over the surfaces, and the dissociation phase was followed for 75-120 seconds depending on the stability of the complex being analyzed. […]

Experiment [5] deals with T1, IL-20. Kind of experiment: SPR (Biacore), IL-20 over amine coupled IL-20R2, equilibrium affinity (no rate constants).
The target in the experiment “IL-20R1-FC” is B1. Description: SPR co-injection: IL-20 (1000-31.25 nM) with soluble IL-20R2 fixed at 500 nM over IL-20R1-FC surface, 1:1 fit. On the procedure:
(§3) FIGS. 13A-13D are graphs showing stability of IL-19 and IL-20 ternary complexes. Stability of the ternary complexes were determined by co-injecting IL-19+soluble IL-20R2 (FIGS. 13B and 13D), or IL-20+soluble IL-20R2 (FIGS. 13A and 13C), over an IL-20R1-FC coupled surface. The concentration of soluble IL-20R2 in these experiments was fixed at 500 nM. IL-19 and IL-20 concentrations varied from 1000 nM to 31.25 nM (2 fold dilutions). IL-19/soluble IL-20R2 and IL-20/IL-20R2 were also injected over an IL-22R1 coupled surface. The SPR sensorgrams are labeled as injected proteins, followed by a semicolon (:), then the protein coupled to the chip surface, IL-20R1 or IL-22R1. All sensograms yielding binding responses were fit to 1:1 binding models.
(§4) Surface Plasmon Resonance Experiments SPR experiments were performed on Biacore T-100, and T-200, (GE healthcare, Waukesha, Wis.) systems. Soluble IL-20R2 was amine coupled (100-130 RU) to CM5 research grade biacore chips in 10 mM sodium acetate, pH 5.0. IL-20R1-FC and IL-20R2-FC were coupled (60-120 RU) to CM5 chips using an anti-FC Ab coupling kit using the manufacturer's instructions (GE healthcare, Waukesha, Wis.). All binding experiments were performed in running buffer consisting of 10 mM Hepes, pH 7.4, 150 mM NaCl, 0.04% P20, and 0.1 mg/mL bovine serum albumin (Sigma, St. Louis, Mo.). No regeneration was performed between sample injections on IL-20R2 amine-coupled surfaces. IL-20R1-FC and IL-20R2-FC surfaces were regenerated after each sample injection with a 3-minute injection of glycine, pH 1.7. Soluble proteins were injected for 75-90 seconds (30 uL/min) over the surfaces, and the dissociation phase was followed for 75-120 seconds depending on the stability of the complex being analyzed. Where possible, the resultant sensorgrams were fit to 1:1 binding models using Biacore T-200 evaluation software version 1.

For another experiment, the target named is T4, IL-22R1 (sIL-22R1DDQ) (Homo sapiens (Human), UniProt Q8N6P7 16-226, limits assumed).
T4 chain: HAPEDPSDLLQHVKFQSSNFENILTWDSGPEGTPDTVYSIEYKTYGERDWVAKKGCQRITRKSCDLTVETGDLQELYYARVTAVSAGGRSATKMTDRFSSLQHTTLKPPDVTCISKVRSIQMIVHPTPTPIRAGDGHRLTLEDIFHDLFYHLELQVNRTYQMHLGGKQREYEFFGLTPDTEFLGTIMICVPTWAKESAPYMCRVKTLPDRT
Kind of experiment: SPR co-injection: IL-20 (1000-31.25 nM) with soluble IL-20R2 fixed at 500 nM over IL-22R1 coupled surface, 1:1 fit. On the procedure:
as §3, §4

Consider 4 molecules from patent US20150203556A1 (UAB RESEARCH FOUNDATION, published 2015).

For the molecule B1, the Kd with IL-20 [1] and with IL-20 [2] was approximately 9 µM each time. In addition, in the experiment with IL-19 [3], the binding result is given as “no binding (tested: 10 µM)”.

B2: IL-19/IL-20R2 binary complex (other)
chain 1: LRRCLISTDMHHIEESFQEIKRAIQAKDTFPNVTILSTLETLQIIKPLDVCCVTKNLLAFYVDRVFKDHQEPNPKILRKISSIANSFLYMQKTLRQCQEQRQCHCRQEATNATRVIHDNYDQLEVHAAAIKSLGELDVFLAWINKNHEVMFSA
chain 2: DEVAILPAPQQLSVLSTNMKHLLMWSPVIAPGETVYYSVEYQGEYESLYTSHIWIPSSWCSLTEGPECDVTDDITATVPYNLRVRATLGSQTSAWSILKHPFNRQSTILTRPGMEITKDGFHLVIELEDLGPQFEFLVAYWRREPGAEEHVKMVRSGGIPVHLETMEPGAAYCVKAQTFVKAIGRYSAFSQTECVEVQGEA
notes: IL-19 with IL-20R2 that carries no FC: amine coupled on the chip, or soluble; also called IL-19+soluble IL-20R2
With B2, the binding result in the experiment with IL-20R1 triple mutant M3 is reported as “no binding (tested: 425 nM M3 with 250 nM IL-19)”.

B3: soluble IL-20R2 (receptor)
chain: DEVAILPAPQQLSVLSTNMKHLLMWSPVIAPGETVYYSVEYQGEYESLYTSHIWIPSSWCSLTEGPECDVTDDITATVPYNLRVRATLGSQTSAWSILKHPFNRQSTILTRPGMEITKDGFHLVIELEDLGPQFEFLVAYWRREPGAEEHVKMVRSGGIPVHLETMEPGAAYCVKAQTFVKAIGRYSAFSQTECVEVQGEA
notes: also called IL-20R2* (amine coupled IL-20R2)
B3: in the experiment with IL-19 [4], binding was characterised by a dissociation constant (Kd) of 0.0363 µM, the koff worked out at 0.0398 s⁻¹ and the on-rate (kon) was determined as 1.1e+06 M⁻¹ s⁻¹. In the experiment with IL-20 [5], this molecule registered a Kd of 0.87 µM.

B4: IL-20/IL-20R2 binary complex (other)
chain 1: MLKTLNLGSCVIATNLQEIRNGFSEIRGSVQAKDGNIDIRILRRTESLQDTKPANRCCLLRHLLRLYLDRVFKNYQTPDHYTLRKISSLANSFLTIKKDLRLCHAHMTCHCGEEAMKKYSQILSHFEKLEPQAAVVKALGELDILLQWMEETE
chain 2: DEVAILPAPQQLSVLSTNMKHLLMWSPVIAPGETVYYSVEYQGEYESLYTSHIWIPSSWCSLTEGPECDVTDDITATVPYNLRVRATLGSQTSAWSILKHPFNRQSTILTRPGMEITKDGFHLVIELEDLGPQFEFLVAYWRREPGAEEHVKMVRSGGIPVHLETMEPGAAYCVKAQTFVKAIGRYSAFSQTECVEVQGEA
notes: also called 20 + 20R2; IL-20+soluble IL-20R2
In the experiment with IL-20R1-FC, B4 returned a dissociation constant (Kd) of 1.07 µM, a dissociation rate constant (koff) of 0.0168 s⁻¹ and a kon of 15700 M⁻¹ s⁻¹. In the experiment with IL-22R1 (sIL-22R1DDQ), the equilibrium dissociation constant (Kd) came to 1.16 µM, the koff was found to be 0.238 s⁻¹ and the kon was 205000 M⁻¹ s⁻¹.

By Kd is commonly meant the free concentration of one partner at which half of the binding sites on the other are occupied at equilibrium, for simple one-to-one binding. High values mean a looser complex, low ones a tighter complex. By koff is commonly meant the rate constant with which the complex falls apart. Usually kon stands for the second-order rate constant of association.
